Experiments:
[1] = molecular target: Rev (Human immunodeficiency virus 1) (UniProt P04325); test: fluorescence; details: cited from earlier work
[2] = molecular target: the molecule itself; test: single-molecule TIRF fluorescence microscopy

DDX1 (from UniProt Q92499)
Kd [1]: 36 nM

B1: HIV-1 Rev (recombinant construct with N-terminal extension, both native cysteines changed to serine, labeled with Alexa-Fluor 555) (natural protein)
chain: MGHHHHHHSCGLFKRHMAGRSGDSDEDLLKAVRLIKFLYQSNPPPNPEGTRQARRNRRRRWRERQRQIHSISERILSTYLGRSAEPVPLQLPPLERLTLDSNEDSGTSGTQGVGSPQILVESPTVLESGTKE
Kd [2]: ~1.5 nM
stoichiometry N [2]: ≤ 8 Rev monomers on one RRE

Source: article PMC3140434 (Journal of molecular biology, 2011)
